For experiment [1], the target named is T1, GRP78 on the surface of HUVEC cells.
T1 construct: also called GRP78 on human umbilical vein endothelial cells
Briefly: confocal microscopy of HUVEC cells, 5 µM labelled peptide, 4 h, 37 °C (uptake).

The target of experiment [2] is T2, GRP78 on the surface of glioma cell U87 (UniProt P11021 19-654, limits assumed).
T2 construct: whole, on cells; also called receptor protein on the cell surface; GRP78 protein
Briefly: confocal microscopy of U87 cells, 5 µM labelled peptide, 4 h, 37 °C (uptake).

Experiment [3] has as its target T3, Recombinant human glucose-regulated protein GRP78 (human, UniProt P11021 19-654, limits assumed).
T3 construct: also called Bip
The experiment in a line: SPR (Biacore T200), recombinant human GRP78 coupled to a CM5 chip, peptide injected at 0.3125-20 µM. For orientation: SPR reads the build-up and loss of mass on a sensor chip optically.

Ends that are not written are not given here. Fluorescein‑5‑maleimide = reacted with thiol of C-terminal Cys

T3 sequence (P11021 19-654 limits assumed): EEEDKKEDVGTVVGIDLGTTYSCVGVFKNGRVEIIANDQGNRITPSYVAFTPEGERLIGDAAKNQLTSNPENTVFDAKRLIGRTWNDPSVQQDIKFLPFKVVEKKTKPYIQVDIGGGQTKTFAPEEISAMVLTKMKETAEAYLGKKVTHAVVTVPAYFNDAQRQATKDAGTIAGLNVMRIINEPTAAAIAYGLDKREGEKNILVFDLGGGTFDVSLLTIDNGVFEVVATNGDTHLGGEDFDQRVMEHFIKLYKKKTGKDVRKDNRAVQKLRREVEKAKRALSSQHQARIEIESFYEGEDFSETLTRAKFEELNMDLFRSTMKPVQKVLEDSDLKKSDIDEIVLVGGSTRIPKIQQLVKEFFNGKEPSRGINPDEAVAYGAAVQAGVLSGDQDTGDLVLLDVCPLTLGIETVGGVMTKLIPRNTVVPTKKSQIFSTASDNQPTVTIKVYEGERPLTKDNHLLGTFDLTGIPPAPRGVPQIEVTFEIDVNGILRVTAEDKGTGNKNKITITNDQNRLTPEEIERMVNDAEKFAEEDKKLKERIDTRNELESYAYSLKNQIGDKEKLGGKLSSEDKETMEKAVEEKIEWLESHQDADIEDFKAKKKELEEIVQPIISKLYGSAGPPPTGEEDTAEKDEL
T2 sequence (P11021 19-654 limits assumed): as above
T1 sequence (chain, as listed by the source limits assumed): as the sequence (P11021 19-654 limits assumed) above

SNTRVAPC(Fluorescein‑5‑maleimide) (also called Fluorescein-labeled ^LVAP) [LVAP-Fluorescein]: the binding result in experiment [1] and in experiment [2] was “binds” in each case.

For the molecule SNTRVAP [LVAP (L-configuration peptide SNTRVAP)], in experiment [3], the Kd is 2700 nM and the koff was 0.019 s⁻¹.

One may read the Kd as the concentration at which binding is half-saturated. As usually defined, the koff is the rate constant with which the complex falls apart.

The values are drawn from US11622990 (FUDAN UNIVERSITY, dated 2023).
